# Laboratory results as given in patent publication US20140335192.
# What was measured:
# Test in all cases: ITC
# Details in all cases: 250 uM protein into 40 uM siRNA, unit of K not stated
# [1] = system: DRBD-PTD chimera (RND-DRBD)
# [2] = system: DRBD (double-stranded RNA binding domain)
# [3] = system: PTD (protein transduction domain peptide)
substance,measurement,setting,value
Luciferase siRNA,Ka,"[1]; Sorensen's phosphate buffer, enthalpy 61.51 kJ/mol",2.12e+07
same,Ka,"[1]; deionized water, enthalpy 98.92 kJ/mol",1e+10
same,Ka,"[2]; Sorensen's phosphate buffer, enthalpy 1998.83 kJ/mol",15200
same,Ka,"[2]; deionized water, enthalpy 201.18 kJ/mol",10500
same,Ka,"[3]; Sorensen's phosphate buffer, enthalpy 14.03 kJ/mol",1.04e+07
same,Ka,"[3]; deionized water, enthalpy 29.83 kJ/mol",1e+10
